Source: publication PMC2888511

Experiments:
Beclin 1 [1] = target: Beclin 1 (UniProt Q14457); experiment: anti-flag IP of flag-Beclin 1, HA-Vps34 blot; conditions: reference: wild type with Cdk5/p25; sites T159
Beclin 1 [2] = target: Beclin 1 (UniProt Q14457); experiment: anti-flag IP of flag-Vps34, GFP-Beclin 1 blot; conditions: reference: wild type with Cdk5/p25; sites T159

- binding against the reference (Beclin 1 [1]): stronger
- binding against the reference (Beclin 1 [2]): stronger
Substance: Vps34 (from UniProt Q8NEB9) T159A with Cdk5/p25
